These results are taken from the Immune Epitope Database (IEDB).

In one experiment the target is HLA-B*18:01. The experiment in a line: IEDB peptide-MHC binding, purified MHC/competitive/radioactivity; filed as Kd, often an IC50 or EC50 that approximates it; ≥ and ≤ were set here for values at or beyond the usual limits of such assays.
The next experiment concerns the target HLA-B*40:01. The description is as above.
The next experiment has as its target HLA-B*45:01. The experiment is described as above.
In another experiment the target is HLA-B*44:02. The description is as above.
The target in the next experiment is HLA-B*44:03. Described as above.
The next experiment concerns the target HLA-B*40:02. The experiment is described as above.
A further experiment concerns the target HLA-B*48:01. In words: IEDB peptide-MHC binding, purified MHC/direct/fluorescence; filed as Kd, often an IC50 or EC50 that approximates it; ≥ and ≤ were set here for values at or beyond the usual limits of such assays.
[1] abbreviates: source organism: SARS coronavirus Tor2.
Setting [2] is: source organism: Mammarenavirus brazilense.
Where [3] appears, read: source organism: Mammarenavirus juninense.
[4] abbreviates: source organism: Mammarenavirus machupoense.
Setting [5] is: source organism: Mammarenavirus choriomeningitidis.
[6] abbreviates: source organism: Mammarenavirus lassaense.

With GEENFSSRMY, the Kd worked out at 3.94 µM with HLA-B*18:01 (setting [1]); 8.44 µM in the experiment with HLA-B*40:01 (setting [1]); 3.21 µM with HLA-B*45:01 (setting [1]); 0.0581 µM with HLA-B*44:02 (setting [1]); 0.0683 µM with HLA-B*44:03 (setting [1]); 14.2 µM in the experiment with HLA-B*40:02 (setting [1]).
For the sequence KEQLQLLMPL, the Kd with HLA-B*18:01 (setting [1]) was found to be 0.184 µM; with HLA-B*40:01 (setting [1]), 0.157 µM; with HLA-B*45:01 (setting [1]), 0.121 µM; in the experiment with HLA-B*44:02 (setting [1]), 0.269 µM; in the experiment with HLA-B*44:03 (setting [1]), 0.0491 µM; with HLA-B*40:02 (setting [1]) it was 0.00523 µM.
RKHGGMLVR returned a Kd with HLA-B*48:01 (source organism: Dengue virus 1 Singapore/S275/1990) of no less than 20 µM.
Turning to EDQGNPIVL, the Kd was no less than 52.1 µM in the experiment with HLA-B*18:01 (setting [2]); 4.86 µM in the experiment with HLA-B*40:01 (setting [2]); 14.9 µM in the experiment with HLA-B*45:01 (setting [2]); no less than 36.6 µM in the experiment with HLA-B*44:02 (setting [2]); no less than 78.1 µM with HLA-B*44:03 (setting [2]); no less than 24.2 µM in the experiment with HLA-B*40:02 (setting [2]).
Regarding PDFNELFQL, the Kd with HLA-B*18:01 (setting [2]) is no less than 77.5 µM; with HLA-B*40:01 (setting [2]) it was no less than 23.6 µM; in the experiment with HLA-B*45:01 (setting [2]), no less than 77.7 µM; with HLA-B*44:02 (setting [2]), no less than 29 µM; with HLA-B*44:03 (setting [2]), no less than 22.9 µM; with HLA-B*40:02 (setting [2]) it was 1.68 µM.
On to DELGNILSVY, for which the Kd with HLA-B*18:01 (setting [3]) was 0.00898 µM; with HLA-B*40:01 (setting [3]), no less than 69.5 µM; with HLA-B*45:01 (setting [3]) it was no less than 70 µM; in the experiment with HLA-B*44:02 (setting [3]), 7.44 µM; with HLA-B*44:03 (setting [3]) it was 1.21 µM; with HLA-B*40:02 (setting [3]), 14.1 µM.
As to FEKAKIEVL, the Kd with HLA-B*48:01 (source organism: Campylobacter jejuni subsp. jejuni 81-176) was no less than 20 µM.
For PEIWLQLNT, the Kd in the experiment with HLA-B*18:01 (setting [4]) was no less than 77.5 µM; in the experiment with HLA-B*40:01 (setting [4]), no less than 76.1 µM; with HLA-B*45:01 (setting [4]), no less than 21.1 µM; with HLA-B*44:02 (setting [4]), 14.4 µM; with HLA-B*44:03 (setting [4]), 2.35 µM; with HLA-B*40:02 (setting [4]), 9.21 µM.
For RRFLEPVGK, the Kd in the experiment with HLA-B*48:01 (source organism: West Nile virus) was no less than 20 µM.
With PEIWLQLNTL, the Kd with HLA-B*18:01 (setting [4]) is 19.7 µM; in the experiment with HLA-B*40:01 (setting [4]) it was 4.45 µM; with HLA-B*45:01 (setting [4]) it was 12.2 µM; with HLA-B*44:02 (setting [4]) it was 10.2 µM; in the experiment with HLA-B*44:03 (setting [4]) it was 8.12 µM; with HLA-B*40:02 (setting [4]), 0.109 µM.
For the sequence FELCDNPFF, the Kd was found to be 0.211 µM in the experiment with HLA-B*18:01 (setting [1]); 0.0351 µM in the experiment with HLA-B*40:01 (setting [1]); 17.7 µM in the experiment with HLA-B*45:01 (setting [1]); 0.0321 µM with HLA-B*44:02 (setting [1]); 0.0582 µM with HLA-B*44:03 (setting [1]); 0.0956 µM with HLA-B*40:02 (setting [1]).
Turning to SDNGILCPT, the Kd is no less than 77.5 µM in the experiment with HLA-B*18:01 (setting [4]); no less than 68.2 µM with HLA-B*40:01 (setting [4]); no less than 77.7 µM with HLA-B*45:01 (setting [4]); no less than 27.8 µM with HLA-B*44:02 (setting [4]); no less than 78.1 µM with HLA-B*44:03 (setting [4]); 1.33 µM in the experiment with HLA-B*40:02 (setting [4]).
For MDLLLFSTS, the Kd in the experiment with HLA-B*18:01 (setting [5]) amounted to 4.09 µM; in the experiment with HLA-B*40:01 (setting [5]) it was 7.05 µM; with HLA-B*45:01 (setting [5]) it was 1.06 µM; in the experiment with HLA-B*44:02 (setting [5]), 6.84 µM; with HLA-B*44:03 (setting [5]) it was 2.68 µM; with HLA-B*40:02 (setting [5]), 0.265 µM.
As for KEAYCQEFFL, the Kd with HLA-B*18:01 (setting [6]) is no less than 30.5 µM; in the experiment with HLA-B*40:01 (setting [6]), 10.9 µM; in the experiment with HLA-B*45:01 (setting [6]) it was 15.6 µM; with HLA-B*44:02 (setting [6]) it was 0.52 µM; with HLA-B*44:03 (setting [6]), 1.18 µM; with HLA-B*40:02 (setting [6]), 0.0153 µM.
Take NEYRQYLDA: the Kd stood at 2.38 µM with HLA-B*18:01 (setting [1]); 1.76 µM with HLA-B*40:01 (setting [1]); 0.0988 µM with HLA-B*45:01 (setting [1]); 12.4 µM with HLA-B*44:02 (setting [1]); 10.9 µM with HLA-B*44:03 (setting [1]); 0.944 µM in the experiment with HLA-B*40:02 (setting [1]).
